Source: paper PMC4041426, “Structural basis for binding the TREX2 complex to nuclear pores, GAL1 localisation and mRNA export” (Nucleic Acids Research, 2014)
One block for each binder: values may come before it.

B1: GST-Nup1^191–385 (domain or fragment, S. cerevisiae, UniProt P20676 191-385, looked up)
chain: KNRSNRKRFHSQSKGTVWSANFEYDLSEYDAIQKKDNKDKEGNAGGDQKTSENRNNIKSSISNGNLATGPNLTSEIEDLRADINSNRLSNPQKNLLLKGPASTVAKTAPIQESFVPNSERSGTPTLKKNIEPKKDKESIVLPTVGFDFIKDNETPSKKTSPKATSSAGAVFKSSVEMGKTDKSTKTAEAPTLSFN
notes: source: E. coli BL21 (DE3) CodonPlus RIL; immobilised on Glutathione Sepharose 4B from clarified lysate; not shown: GST, N-terminal, kept
B6: Sac3^757–787 (domain or fragment, S. cerevisiae, UniProt P46674 757-787, looked up)
chain: RKDFIDTMTRELYDAFLHERLYLIYMDSRAE
notes: source: E. coli BL21 (DE3) CodonPlus RIL, purified in complex with Sus1B
B7: Sac3^757–787:Sus1B (complex, S. cerevisiae)
chain 1: RKDFIDTMTRELYDAFLHERLYLIYMDSRAE
chain 2: MTMDTAQLKSQIQQYLVESGNYELISNELKARLLQEGWVDKVKDLTKSEMNINESTNFTQILSTVEPKALEMVSDSTRETVLKQIREFLEEIVDTQ
notes: Sus1, S. cerevisiae (the Sus1B chain); also called B sub-complex; Sac3:Sus1B; copies: 1 + 1

Columns and labels:
Conditions in all cases: both partners purified
[1] = molecular target: T1, Sac3^753–805:Sus1B:Cdc31 complex (S. cerevisiae, UniProt P46674 753-805; Q6WNK7 1-96; P06704 1-161); assay: pull-down; GST-Nup fusion (or GST) immobilised on Glutathione Sepharose 4B from clarified bacterial lysate and washed with PBS-DTT; purified Sac3^CID complex, sub-complex, mutant variant or Kap95 added at 15.4 μM; 4°C, 1 h; SDS-PAGE and Coomassie staining
T1 construct: Sac3, S. cerevisiae, residues 753–805 (BC); Sus1, S. cerevisiae (the Sus1B chain); Cdc31, S. cerevisiae; also called BC sub-complex; source: E. coli BL21 (DE3) CodonPlus RIL; cells with co-expressed Sac3:Cdc31 mixed with cells with Sus1; copies: 1 + 1 + 1
T1 sequence 1: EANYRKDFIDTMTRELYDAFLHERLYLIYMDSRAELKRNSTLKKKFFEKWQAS
T1 sequence 2: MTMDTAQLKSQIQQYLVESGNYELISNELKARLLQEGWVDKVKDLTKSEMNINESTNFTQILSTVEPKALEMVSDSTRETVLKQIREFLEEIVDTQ
T1 sequence 3: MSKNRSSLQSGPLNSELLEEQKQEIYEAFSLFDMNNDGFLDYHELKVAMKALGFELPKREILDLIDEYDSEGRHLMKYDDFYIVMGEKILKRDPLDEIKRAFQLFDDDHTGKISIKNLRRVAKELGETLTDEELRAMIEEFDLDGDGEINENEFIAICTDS

[2] = molecular target: T1, Sac3^753–805:Sus1B:Cdc31 complex; assay: crystal structure; Nup1^316–340 mixed 7:1 with Sac3^753–805:Sus1B:Cdc31 (14.6 mg/ml); 16% PEG600, 2% PEG 1K, 10% glycerol, 100 mM MES pH 6.0; P2_(1), 2.6 Å
[3] = molecular target: T2, Sus1 (S. cerevisiae, UniProt Q6WNK7 1-96); assay: crystal structure; Nup1^322–355 mixed 6:1 with Sac3^757–787:Sus1B (15 mg/ml); 2.2–2.35 M ammonium sulphate, 100 mM Na citrate pH 5.6; P3_(2)21, 3.0 Å
T2 construct: Sus1, S. cerevisiae; also called Sus1A; Sus1B; source: E. coli BL21 (DE3) CodonPlus RIL; in clarified lysate (assembly pull-down), purified within Sac3 complexes (crystals)
T2 sequence: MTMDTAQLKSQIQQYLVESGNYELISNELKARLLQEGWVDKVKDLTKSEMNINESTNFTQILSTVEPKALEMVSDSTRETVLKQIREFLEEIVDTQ

[4] = molecular target: B7; assay: as above
[5] = molecular target: B6; assay: as above
[6] = molecular target: T2, Sus1; assay: crystal structure; Nup1^316–340 mixed 7:1 with Sac3^753–805:Sus1B:Cdc31 (14.6 mg/ml); 16% PEG600, 2% PEG 1K, 10% glycerol, 100 mM MES pH 6.0; P2_(1), 2.6 Å
[7] = molecular target: T3, Cdc31 (S. cerevisiae, UniProt P06704 1-161); assay: as above
T3 construct: Cdc31, S. cerevisiae; source: E. coli BL21 (DE3) CodonPlus RIL, co-expressed with Sac3 fragments; in clarified lysate (assembly pull-down), purified within Sac3 complexes (crystals)
T3 sequence: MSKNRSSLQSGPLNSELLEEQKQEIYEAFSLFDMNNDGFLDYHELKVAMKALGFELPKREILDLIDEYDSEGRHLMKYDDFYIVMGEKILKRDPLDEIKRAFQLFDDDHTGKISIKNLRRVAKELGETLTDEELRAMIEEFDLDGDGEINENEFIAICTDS

[8] = molecular target: T4, Kap95 (yeast, UniProt Q06142 1-861); assay: pull-down; GST-Nup fusion (or GST) immobilised on Glutathione Sepharose 4B from clarified bacterial lysate and washed with PBS-DTT; purified Sac3^CID complex, sub-complex, mutant variant or Kap95 added at 15.4 μM; 4°C, 1 h; SDS-PAGE and Coomassie staining
T4 construct: Kap95 (protein import karyopherin), yeast; also called karyopherin Kap95; yeast Kap95
T4 sequence (looked up): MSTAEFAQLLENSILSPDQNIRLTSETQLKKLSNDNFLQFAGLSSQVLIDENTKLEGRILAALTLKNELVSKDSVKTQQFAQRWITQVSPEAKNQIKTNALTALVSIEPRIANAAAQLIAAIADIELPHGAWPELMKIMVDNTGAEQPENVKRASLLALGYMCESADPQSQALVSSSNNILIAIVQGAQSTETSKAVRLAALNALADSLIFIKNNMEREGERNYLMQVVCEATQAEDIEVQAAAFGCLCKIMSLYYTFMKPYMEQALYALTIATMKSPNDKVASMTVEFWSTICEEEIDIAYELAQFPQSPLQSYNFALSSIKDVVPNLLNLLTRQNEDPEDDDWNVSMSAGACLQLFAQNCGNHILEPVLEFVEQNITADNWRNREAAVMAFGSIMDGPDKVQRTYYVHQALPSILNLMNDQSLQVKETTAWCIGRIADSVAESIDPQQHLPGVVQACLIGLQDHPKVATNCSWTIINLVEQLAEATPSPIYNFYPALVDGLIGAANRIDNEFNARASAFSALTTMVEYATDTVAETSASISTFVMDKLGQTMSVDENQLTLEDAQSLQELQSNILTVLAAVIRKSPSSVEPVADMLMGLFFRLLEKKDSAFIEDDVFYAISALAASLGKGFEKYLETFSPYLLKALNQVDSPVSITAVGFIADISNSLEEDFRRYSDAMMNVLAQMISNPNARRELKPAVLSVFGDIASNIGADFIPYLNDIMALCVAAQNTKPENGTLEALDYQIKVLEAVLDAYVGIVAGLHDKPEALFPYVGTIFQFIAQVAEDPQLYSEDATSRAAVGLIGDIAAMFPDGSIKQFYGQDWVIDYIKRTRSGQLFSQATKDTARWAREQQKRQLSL

[9] = molecular target: B1; assay: as above

Binder: B1
binding result [1]: binds

binding result [2]: binds
B2: Nup1^316–340 (domain or fragment, S. cerevisiae, UniProt P20676 316-340, looked up)
chain: LKKNIEPKKDKESIVLPTVGFDFIK
notes: Nup1, S. cerevisiae, residues 316–340; Residues 330–340 were built in the model; also called Nup1 fragment; source: E. coli BL21 (DE3) CodonPlus RIL, purified (Glutathione Sepharose, TEV release, Superdex75); not shown: GST, N-terminal, cleaved

binding result [3]: binds
binding result [4]: binds
binding result [5]: binds
B3: Nup1^322–355 (domain or fragment, S. cerevisiae, UniProt P20676 322-355, looked up)
chain: PKKDKESIVLPTVGFDFIKDNETPSKKTSPKATS
notes: Residues 326–340 were built in the model; also called Nup1 fragment; source: E. coli BL21 (DE3) CodonPlus RIL, purified (Glutathione Sepharose, TEV release, Superdex75); not shown: GST, N-terminal, cleaved

binding result [6]: binds
binding result [7]: binds
B4: Sac3^753–805 (domain or fragment, S. cerevisiae, UniProt P46674 753-805, looked up)
chain: EANYRKDFIDTMTRELYDAFLHERLYLIYMDSRAELKRNSTLKKKFFEKWQAS
notes: Sac3, S. cerevisiae, residues 753–805 (BC); also called BC fragment; source: E. coli BL21 (DE3) CodonPlus RIL, purified in complex with Sus1B and Cdc31

binding result [8]: binds
B5: GST-Nup1^371–500 (domain or fragment, S. cerevisiae, UniProt P20676 371-500, looked up)
chain: DKSTKTAEAPTLSFNFSQKANKTKAVDNTVPSTTLFNFGGKSDTVTSASQPFKFGKTSEKSENHTESDAPPKSTAPIFSFGKQEENGDEGDDENEPKRKRRLPVSEDTNTKPLFDFGKTGDQKETKKGES
notes: as for B1

Binder: B6
binding result [3]: binds

Binder: B7
binding result [9]: binds
